Bridge positions count the residues as written; N and C are the ends. Ends that are not written are not given here. GdT = GdDTPA-thiourea

Test [1] addresses human collagen type I (acid soluble, extracted from placenta, Sigma C7774) (human) (UniProt P02452). Put plainly: dried collagen assay.
Test [2] concerns the target rat collagen (acid soluble, type I, rat tail, Upstate 08-115) (rat) (UniProt P02454). Put plainly: dried collagen assay, 5 uM each.
Test [3] has as its target human collagen type I (acid soluble, extracted from placenta, Sigma C7774) (human) (UniProt P02452). Nature of the test: dried collagen assay, 5 uM each.

Chain of human collagen type I (acid soluble, extracted from placenta, Sigma C7774) (human) (P02452 162-1218 limits assumed, chain 1 of 2): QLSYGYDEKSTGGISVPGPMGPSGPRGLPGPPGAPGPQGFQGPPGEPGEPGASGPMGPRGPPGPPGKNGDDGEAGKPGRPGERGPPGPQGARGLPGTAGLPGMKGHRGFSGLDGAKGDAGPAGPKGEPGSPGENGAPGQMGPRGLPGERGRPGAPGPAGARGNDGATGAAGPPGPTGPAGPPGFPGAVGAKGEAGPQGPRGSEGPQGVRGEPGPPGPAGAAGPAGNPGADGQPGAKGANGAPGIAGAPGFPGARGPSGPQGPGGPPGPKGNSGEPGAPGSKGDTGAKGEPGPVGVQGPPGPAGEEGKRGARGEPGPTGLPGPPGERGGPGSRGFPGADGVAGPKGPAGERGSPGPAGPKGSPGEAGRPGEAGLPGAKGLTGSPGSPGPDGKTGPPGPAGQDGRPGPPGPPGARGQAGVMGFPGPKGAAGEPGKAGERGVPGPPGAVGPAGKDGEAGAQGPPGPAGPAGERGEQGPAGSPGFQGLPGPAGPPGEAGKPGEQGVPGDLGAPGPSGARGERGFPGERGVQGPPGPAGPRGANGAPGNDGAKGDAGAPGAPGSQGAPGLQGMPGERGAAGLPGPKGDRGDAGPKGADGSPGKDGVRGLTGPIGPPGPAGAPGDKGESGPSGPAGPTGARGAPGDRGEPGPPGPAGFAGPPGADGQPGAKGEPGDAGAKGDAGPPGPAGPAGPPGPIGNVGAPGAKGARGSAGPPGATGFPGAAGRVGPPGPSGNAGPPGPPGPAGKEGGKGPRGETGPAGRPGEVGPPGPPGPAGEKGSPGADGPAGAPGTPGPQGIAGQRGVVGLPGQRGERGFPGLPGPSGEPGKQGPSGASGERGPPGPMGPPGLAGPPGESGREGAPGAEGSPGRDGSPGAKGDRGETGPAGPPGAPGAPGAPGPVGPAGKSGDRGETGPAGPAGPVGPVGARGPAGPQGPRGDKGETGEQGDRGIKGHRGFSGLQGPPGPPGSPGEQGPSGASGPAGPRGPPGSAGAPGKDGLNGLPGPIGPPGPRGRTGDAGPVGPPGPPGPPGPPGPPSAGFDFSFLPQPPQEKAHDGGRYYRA
Chain of human collagen type I (acid soluble, extracted from placenta, Sigma C7774) (human) (P08123 80-1119 limits assumed, chain 2 of 2, further chain): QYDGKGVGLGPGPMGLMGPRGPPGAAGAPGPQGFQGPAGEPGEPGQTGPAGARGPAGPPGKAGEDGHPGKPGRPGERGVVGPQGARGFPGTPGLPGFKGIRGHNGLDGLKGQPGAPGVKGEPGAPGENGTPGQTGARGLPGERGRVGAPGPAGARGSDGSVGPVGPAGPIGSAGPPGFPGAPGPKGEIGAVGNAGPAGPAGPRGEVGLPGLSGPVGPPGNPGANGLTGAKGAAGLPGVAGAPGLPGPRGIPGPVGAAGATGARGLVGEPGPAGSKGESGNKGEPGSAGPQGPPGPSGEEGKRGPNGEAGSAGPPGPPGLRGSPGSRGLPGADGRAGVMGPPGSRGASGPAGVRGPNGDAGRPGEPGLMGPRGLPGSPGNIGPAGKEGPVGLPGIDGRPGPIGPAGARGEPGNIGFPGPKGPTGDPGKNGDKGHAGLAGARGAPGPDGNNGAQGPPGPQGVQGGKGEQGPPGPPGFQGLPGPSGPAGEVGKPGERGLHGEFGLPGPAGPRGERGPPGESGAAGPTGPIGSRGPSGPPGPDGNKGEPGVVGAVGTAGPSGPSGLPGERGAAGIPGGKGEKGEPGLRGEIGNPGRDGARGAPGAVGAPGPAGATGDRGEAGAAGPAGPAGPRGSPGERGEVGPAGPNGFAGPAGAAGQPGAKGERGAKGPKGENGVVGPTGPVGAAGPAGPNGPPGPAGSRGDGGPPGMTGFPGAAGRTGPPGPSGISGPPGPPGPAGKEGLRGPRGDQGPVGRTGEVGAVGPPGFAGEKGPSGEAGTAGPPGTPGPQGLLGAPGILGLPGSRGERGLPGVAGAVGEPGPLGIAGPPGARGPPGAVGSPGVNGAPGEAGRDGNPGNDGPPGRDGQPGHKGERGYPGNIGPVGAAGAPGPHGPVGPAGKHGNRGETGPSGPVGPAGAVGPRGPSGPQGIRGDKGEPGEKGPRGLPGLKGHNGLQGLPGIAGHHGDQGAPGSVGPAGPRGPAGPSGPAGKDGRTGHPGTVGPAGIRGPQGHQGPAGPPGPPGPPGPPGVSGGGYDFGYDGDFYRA
Chain of rat collagen (acid soluble, type I, rat tail, Upstate 08-115) (rat) (P02454 152-1207, chain 1 of 2): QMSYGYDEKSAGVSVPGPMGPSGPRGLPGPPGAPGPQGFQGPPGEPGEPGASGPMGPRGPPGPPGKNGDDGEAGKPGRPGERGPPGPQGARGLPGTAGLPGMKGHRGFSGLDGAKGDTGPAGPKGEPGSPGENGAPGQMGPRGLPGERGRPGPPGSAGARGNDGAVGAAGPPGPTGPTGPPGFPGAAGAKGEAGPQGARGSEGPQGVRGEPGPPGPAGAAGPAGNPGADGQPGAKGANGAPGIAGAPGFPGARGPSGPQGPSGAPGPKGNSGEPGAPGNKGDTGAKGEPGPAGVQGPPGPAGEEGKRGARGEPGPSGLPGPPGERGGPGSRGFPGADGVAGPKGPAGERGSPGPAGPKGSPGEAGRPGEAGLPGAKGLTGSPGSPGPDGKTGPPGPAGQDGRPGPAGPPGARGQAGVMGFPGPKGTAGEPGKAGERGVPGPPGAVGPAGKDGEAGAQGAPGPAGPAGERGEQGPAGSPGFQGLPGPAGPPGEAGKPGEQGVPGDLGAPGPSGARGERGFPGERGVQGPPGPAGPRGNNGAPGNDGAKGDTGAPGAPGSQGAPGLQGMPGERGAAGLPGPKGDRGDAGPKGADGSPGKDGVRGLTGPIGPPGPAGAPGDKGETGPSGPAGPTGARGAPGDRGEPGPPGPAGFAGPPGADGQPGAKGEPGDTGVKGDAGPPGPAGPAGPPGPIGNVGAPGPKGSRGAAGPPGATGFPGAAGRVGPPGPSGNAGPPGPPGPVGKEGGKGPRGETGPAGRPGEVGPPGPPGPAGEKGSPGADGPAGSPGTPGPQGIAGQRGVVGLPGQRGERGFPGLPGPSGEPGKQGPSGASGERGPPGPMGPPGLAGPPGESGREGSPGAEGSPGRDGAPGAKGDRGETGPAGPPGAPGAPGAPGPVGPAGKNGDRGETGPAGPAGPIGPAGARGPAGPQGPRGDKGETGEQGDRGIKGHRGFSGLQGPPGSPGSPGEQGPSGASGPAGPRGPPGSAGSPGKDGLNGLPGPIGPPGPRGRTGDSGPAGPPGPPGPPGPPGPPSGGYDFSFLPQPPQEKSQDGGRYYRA
Chain of rat collagen (acid soluble, type I, rat tail, Upstate 08-115) (rat) (P02466 86-1125, chain 2 of 2, further chain): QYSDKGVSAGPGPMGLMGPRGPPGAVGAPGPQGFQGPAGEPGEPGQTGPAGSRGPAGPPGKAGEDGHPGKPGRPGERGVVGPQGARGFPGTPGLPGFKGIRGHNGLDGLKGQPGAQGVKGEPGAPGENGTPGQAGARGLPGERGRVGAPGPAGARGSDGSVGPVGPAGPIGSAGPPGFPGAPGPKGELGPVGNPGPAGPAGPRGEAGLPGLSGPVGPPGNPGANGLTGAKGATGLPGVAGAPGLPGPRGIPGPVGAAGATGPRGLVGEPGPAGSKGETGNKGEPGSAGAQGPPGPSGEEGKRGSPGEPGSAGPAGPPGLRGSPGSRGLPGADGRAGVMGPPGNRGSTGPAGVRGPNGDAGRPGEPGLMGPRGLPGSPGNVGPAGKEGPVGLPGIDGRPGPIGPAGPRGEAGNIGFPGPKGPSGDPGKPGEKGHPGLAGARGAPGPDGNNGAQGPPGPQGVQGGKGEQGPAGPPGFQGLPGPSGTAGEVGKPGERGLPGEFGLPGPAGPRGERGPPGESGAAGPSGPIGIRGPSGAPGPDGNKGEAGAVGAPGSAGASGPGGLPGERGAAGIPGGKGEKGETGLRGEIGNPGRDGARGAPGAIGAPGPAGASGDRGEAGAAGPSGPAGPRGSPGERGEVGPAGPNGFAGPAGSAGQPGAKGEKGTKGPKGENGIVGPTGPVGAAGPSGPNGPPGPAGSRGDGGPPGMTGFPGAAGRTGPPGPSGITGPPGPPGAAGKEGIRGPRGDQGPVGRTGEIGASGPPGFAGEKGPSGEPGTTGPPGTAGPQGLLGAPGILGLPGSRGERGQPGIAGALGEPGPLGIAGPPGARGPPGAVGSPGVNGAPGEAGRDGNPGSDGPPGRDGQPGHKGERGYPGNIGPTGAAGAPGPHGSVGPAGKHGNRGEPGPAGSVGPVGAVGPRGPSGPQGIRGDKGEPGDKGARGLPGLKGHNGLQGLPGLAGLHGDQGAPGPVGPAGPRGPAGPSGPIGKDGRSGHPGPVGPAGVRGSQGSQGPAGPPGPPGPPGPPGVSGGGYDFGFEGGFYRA

B1: SEQ ID NO: 41 (peptide)
peptide: VWACRGGTTNWHCDL
modifications: disulfide 4-13; also: C-terminus probably amidated (Rink amide resin)
In turn, B1 came in with a Dried Human Collagen Binding in test [1] of 1%.

B2: SEQ ID NO: 6 (peptide)
peptide: TWQCSGNQKWSCEWF
modifications: disulfide 4-12; also: C-terminus probably amidated (Rink amide resin)
As to B2, the Dried Human Collagen Binding in test [1] was 20%.

B3: Compound ID 1010 (peptide)
chain: GKWHCYTKFPHHYCVYYY
As to B3, in test [2], the Rat binding stood at 89%. The Human binding in test [3] was determined as 92%.

B4: Compound ID 994 (peptide)
peptide: GdT-GQWHCYTYFPHHYCLYGK
modifications: disulfide 5-14 (inferred); not fully specified (residue 18, C-terminus)
In test [2], B4 gave a Rat binding of 84%. In addition, the Human binding in test [3] is 86%.

B5: Compound ID 966 (peptide)
chain: GKWHCTTLFPHHVCLYG
Molecule B5 registered a Rat binding in test [2] of 8%. For the same molecule, the Human binding in test [3] came out at 14%.

B6: Compound ID 983 (peptide)
chain: GFKWHCTTYFPHHYCLYG
Turning to B6, the Rat binding in test [2] worked out at 59%. For the same molecule, the Human binding in test [3] is 58%.

B7: Compound ID 963 (peptide)
chain: GKWHCYTYFPYHYCVYG
In test [2], B7 displayed a Rat binding of 91%. Also, in test [3], the Human binding was 82%.

B8: Compound ID 1015 (peptide)
chain: KKGWHCYTYFPHHYCTYG
As to B8, the Rat binding in test [2] was found to be 30%. The molecule also registered a Human binding in test [3] of 29%.

B9: Compound ID 972 (peptide)
chain: GKWHCTTYFPHHFCLYG
On to B9, for which, in test [2], the Rat binding came to 0%. The molecule also displayed a Human binding in test [3] of 3%.

B10: Compound ID 980 (peptide)
chain: GKWHCTTKFPHHYCLYY
On to B10, for which, in test [2], the Rat binding is 80%. The Human binding in test [3] worked out at 85%.

B11: SEQ ID NO: 37 (peptide)
peptide: LWNCHGTDANWKCVLN
modifications: disulfide 4-13; also: C-terminus probably amidated (Rink amide resin)
Take B11: the Dried Human Collagen Binding in test [1] worked out at 7%.

B12: SEQ ID NO: 1 (peptide)
peptide: YHACYQAGCWIW
modifications: disulfide 4-9; not fully specified (C-terminus)
B12: in test [1], the Dried Human Collagen Binding stood at 56%.

B13: Compound ID 981 (peptide)
chain: GYKWHCTTYFPHHYCLYG
B13 showed a Rat binding in test [2] of 81%. Also, the Human binding in test [3] was determined as 73%.

B14: Compound ID 995 (peptide)
chain: GKWHCYTKFPHHYCLYGK
Consider B14, for which the Rat binding in test [2] was determined as 42%. The Human binding in test [3] amounted to 51%.

B15: SEQ ID NO: 39 (peptide)
peptide: GWQCSGDASVWNCDWI
modifications: disulfide 4-13; also: C-terminus probably amidated (Rink amide resin)
As for B15, the Dried Human Collagen Binding in test [1] amounted to 6%.

B16: Compound ID 996 (peptide)
chain: GKWHCYTYFPHHYCLYGK
The molecule B16 returned a Rat binding in test [2] of 67%. The molecule also came in with a Human binding in test [3] of 76%.

B17: Compound ID 1011 (peptide)
chain: GKWHCYTKFPYHYCVYY
In test [2], B17 displayed a Rat binding of 93%. The molecule further showed a Human binding in test [3] of 94%.

B18: Compound ID 1016 (peptide)
chain: KKAWHCYTYFPHHYCVYG
As for B18, the Rat binding in test [2] was determined as 50%. The molecule further displayed a Human binding in test [3] of 48%.

B19: SEQ ID NO: 108 (peptide)
peptide: YHACYQAGCYIY
modifications: disulfide 4-9; not fully specified (C-terminus)
In test [1], B19 showed a % Collagen Binding of 5%.

B20: SEQ ID NO: 38 (peptide)
peptide: GWSCHGDAADWPCQWS
modifications: disulfide 4-13; also: C-terminus probably amidated (Rink amide resin)
Molecule B20 had a Dried Human Collagen Binding in test [1] of 6%.

B21: Compound ID NO. 1014 (peptide)
chain: KKWHCYTYFPHHYCVYG
modifications: disulfide 5-14 (inferred); also: coupled to ITC-Gd3 (tris-Gd-DOTAGA isothiocyanate), site not given here
For the molecule B21, the Rat binding in test [2] was found to be 61%. The same molecule gave a Human binding in test [3] of 72%.

B22: Compound ID 990 (peptide)
chain: GKWYCTTYFPHHYCLYG
For the molecule B22, the Rat binding in test [2] was found to be 62%. In test [3], this molecule showed a Human binding of 59%.

B23: Compound ID 1013 (peptide)
chain: GKWHCYTKFPHHYCKYY
In test [2], B23 yielded a Rat binding of 88%. This molecule registered a Human binding in test [3] of 81%.

B24: Compound ID 979 (peptide)
chain: GKWHCYTKFPHHYCVYY
The molecule B24 gave a Rat binding in test [2] of 86%. In addition, the Human binding in test [3] was 87%.

B25: SEQ ID NO: 9 (peptide)
peptide: TWNCYGVTEWHCYMI
modifications: disulfide 4-12; not fully specified (C-terminus)
For B25, in test [1], the Dried Human Collagen Binding came to 7%.

B26: Compound ID 975 (peptide)
chain: GKWHCYTYFPHHYCVYYK
As to B26, in test [2], the Rat binding stood at 64%. The same molecule showed a Human binding in test [3] of 70%.

B27: Compound ID 978 (peptide)
chain: GKWHCYTKFPHHYCVYG
As to B27, the Rat binding in test [2] stood at 66%. In test [3], the Human binding amounted to 64%.

B28: SEQ ID NO: 5 (peptide)
peptide: NWKCWGVVKWECIWA
modifications: disulfide 4-12; also: C-terminus presumably amidated (Rink amide resin)
The molecule B28 came in with a Dried Human Collagen Binding in test [1] of 24%.

B29: SEQ ID NO: 36 (peptide)
peptide: SWSCGGDHNAWKCQYS
modifications: disulfide 4-13; also: C-terminus probably amidated (Rink amide resin)
In test [1], B29 returned a Dried Human Collagen Binding of 7%.

B30: Compound ID 985 (peptide)
chain: GKWHCYTYFPHHYCLYFK
As for B30, the Rat binding in test [2] is 68%. The molecule further had a Human binding in test [3] of 56%.

B31: Compound ID 991 (peptide)
chain: GKWHCYKYFPHHYCLYG
As to B31, the Rat binding in test [2] was 11%. The Human binding in test [3] was determined as 23%.

B32: Compound ID 993 (peptide)
peptide: GdT-GQWHCYTKFPHHYCLYGK
modifications: disulfide 5-14 (inferred); not fully specified (residues 8, 18, C-terminus)
In turn, B32 returned a Rat binding in test [2] of 70%. In addition, the Human binding in test [3] is 75%.

B33: Compound ID 965 (peptide)
chain: GKWHCTTYFPHHVCLYG
Regarding B33, the Rat binding in test [2] worked out at 11%. The same molecule displayed a Human binding in test [3] of 26%.

B34: Compound ID 1017 (peptide)
chain: KKLWHCYTYFPHHYCVYG
For the molecule B34, the Rat binding in test [2] was found to be 18%. In test [3], this molecule came in with a Human binding of 25%.

B35: Compound ID 964 (peptide)
chain: GKWHCYTYFPYHYCLYG
In test [2], B35 came in with a Rat binding of 86%. Moreover, in test [3], the Human binding was found to be 88%.

B36: SEQ ID NO: 63 (peptide)
peptide: NWYCSQALDNWSCKLR
modifications: disulfide 4-13; also: C-terminus likely amidated (Rink amide resin)
Molecule B36 registered a Dried Human Collagen Binding in test [1] of 8%.

B37: SEQ ID NO: 35 (peptide)
peptide: YWVCGGDHQSWHCSHP
modifications: disulfide 4-13; also: C-terminus probably amidated (Rink amide resin)
In test [1], B37 yielded a Dried Human Collagen Binding of 8%.

B38: Compound ID 982 (peptide)
chain: GVKWHCTTYFPHHYCLYG
For the molecule B38, the Rat binding in test [2] was found to be 47%. This molecule gave a Human binding in test [3] of 40%.

B39: Compound ID 976 (peptide)
chain: GKWHCTTYFPHHYCLYYK
In test [2], B39 returned a Rat binding of 57%. Also, the Human binding in test [3] worked out at 62%.

B40: SEQ ID NO: 8 (peptide)
peptide: GWQCFGASDWHCTWV
modifications: disulfide 4-12; not fully specified
B40: the Dried Human Collagen Binding in test [1] was 9%.

B41: Compound ID 989 (peptide)
chain: GKWHCYTYFPHHYCLYVK
In test [2], B41 showed a Rat binding of 74%. This molecule also came in with a Human binding in test [3] of 67%.

B42: Compound ID 1018 (peptide)
chain: KKYWHCYTYFPHHYCVYG
In turn, B42 came in with a Rat binding in test [2] of 55%. In test [3], this molecule returned a Human binding of 53%.

B43: Compound ID 984 (peptide)
chain: GHKWHCTTYFPHHYCLYG
On to B43, for which the Rat binding in test [2] was 69%. Also, the Human binding in test [3] was 67%.

B44: Compound ID 974 (peptide)
chain: GKWHCYTYFPHHYCVYGK
Regarding B44, the Rat binding in test [2] was 69%. For the same molecule, in test [3], the Human binding came out at 71%.

B45: SEQ ID NO: 99 (peptide)
peptide: AKKCWYNDGGHLRCRTL
modifications: disulfide 4-14; not fully specified (C-terminus)
B45 displayed a Dried Human Collagen Binding in test [1] of 3%.

For the origin of these results see US20080058636A1, “METHODS OF MYOCARDIAL IMAGING” (Epix Pharmaceuticals, Inc., priority 2005, published 2008).
